What was measured:
[1] = target: T1, HCoV-229E S glycoprotein wild-type soluble ectodomain (residues 1-1116) with C-terminal GCN4 trimerization … (HCoV-229E, UniProt P15423 16-1116); experiment: SPR; OpenSPR; hAPN immobilised on COOH sensor chip; S trimer peak 2 sample injected at 0, 6.25, 12.5, 25 and 50 nM; HBS-EP+ buffer; 298 K; one-to-one binding model; conditions: both partners purified
[2] = target: T1, HCoV-229E S glycoprotein wild-type …; experiment: SPR; OpenSPR; hAPN immobilised on COOH sensor chip; S trimer peak 3 sample injected at 0, 3.13, 6.25, 12.5 and 25 nM; HBS-EP+ buffer; 298 K; one-to-one binding model; conditions: both partners purified

B1: human aminopeptidase N (receptor)
chain: DQSKAWNRYRLPNTLKPDSYRVTLRPYLTPNDRGLYVFKGSSTVRFTCKEATDVIIIHSKKLNYTLSQGHRVVLRGVGGSQPPDIDKTELVEPTEYLVVHLKGSLVKDSQYEMDSEFEGELADDLAGFYRSEYMEGNVRKVVATTQMQAADARKSFPCFDEPAMKAEFNITLIHPKDLTALSNMLPKGPSTPLPEDPNWNVTEFHTTPKMSTYLLAFIVSEFDYVEKQASNGVLIRIWARPSAIAAGHGDYALNVTGPILNFFAGHYDTPYPLPKSDQIGLPDFNAGAMENWGLVTYRENSLLFDPLSSSSSNKERVVTVIAHELAHQWFGNLVTIEWWNDLWLNEGFASYVEYLGADYAEPTWNLKDLMVLNDVYRVMAVDALASSHPLSTPASEINTPAQISELFDAISYSKGASVLRMLSSFLSEDVFKQGLASYLHTFAYQNTIYLNLWDHLQEAVNNRSIQLPTTVRDIMNRWTLQMGFPVITVDTSTGTLSQEHFLLDPDSNVTRPSEFNYVWIVPITSIRDGRQQQDYWLIDVRAQNDLFSTSGNEWVLLNLNVTGYYRVNYDEENWRKIQTQLQRDHSAIPVINRAQIINDAFNLASAHKVPVTLALNNTLFLIEERQYMPWEAALSSLSYFKLMFDRSEVYGPMKNYLKKQVTPLFIHFRNNTNNWREIPENLMDQYSEVNAISTACSNGVPECEEMVSGLFKQWMENPNNNPIHPNLRSTVYCNAIAQGGEEEWDFAWEQFRNATLVNEADKLRAALACSKELWILNRYLSYTLNPDLIRKQDATSTIISITNNVIGQGLVWDFVQSNWKKLFNDYGGGSFSFSNLIQAVTRRFSTEYELQQLEQFKKDNEETGFGSGTRALEQALEKTKANIKWVKENKEVVLQWFTENSK
Kd [1]: 36.3 nM
koff [1]: 0.00115 s⁻¹
kon [1]: 31800 M⁻¹ s⁻¹
Kd [2]: 6.78 nM
koff [2]: 0.000485 s⁻¹
kon [2]: 71500 M⁻¹ s⁻¹
